According to patent US5777073:
Like-named read-outs stand apart in the source and are kept apart here.

Experiments:
[1] = biological target: CRF receptors on rat anterior pituitary cells (rat)
[2] = biological target: CRF receptors on rat anterior pituitary cells (rat); remark: listed apart in the source
[3] = biological target: CRF receptors on rat anterior pituitary cells (rat); remark: listed apart in the source
[4] = biological target: CRF receptors on rat anterior pituitary cells (rat); remark: listed apart in the source
[5] = biological target: CRF receptors on rat anterior pituitary cells (rat); remark: listed apart in the source
[6] = biological target: CRF receptors on rat anterior pituitary cells (rat); remark: listed apart in the source
[7] = biological target: CRF receptors on rat anterior pituitary cells (rat); remark: listed apart in the source
[8] = biological target: CRF receptors on rat anterior pituitary cells (rat); remark: listed apart in the source
[9] = biological target: CRF receptors on rat anterior pituitary cells (rat); remark: listed apart in the source
[10] = biological target: CRF receptors on rat anterior pituitary cells (rat); remark: listed apart in the source
[11] = biological target: CRF receptors on rat anterior pituitary cells (rat); remark: listed apart in the source
[12] = biological target: CRF receptors on rat anterior pituitary cells (rat); remark: listed apart in the source
[13] = biological target: CRF receptors on rat anterior pituitary cells (rat); remark: listed apart in the source
[14] = biological target: CRF receptors on rat anterior pituitary cells (rat); remark: listed apart in the source
[15] = biological target: CRF receptors on rat anterior pituitary cells (rat); remark: listed apart in the source
[16] = biological target: CRF receptors on rat anterior pituitary cells (rat); remark: listed apart in the source
[17] = biological target: CRF receptors on rat anterior pituitary cells (rat); remark: listed apart in the source
[18] = biological target: CRF receptors on rat anterior pituitary cells (rat); remark: listed apart in the source
[19] = biological target: CRF receptors on rat anterior pituitary cells (rat); remark: listed apart in the source
[20] = biological target: CRF receptors on rat anterior pituitary cells (rat); remark: listed apart in the source
[21] = biological target: CRF receptors on rat anterior pituitary cells (rat); remark: listed apart in the source
[22] = biological target: CRF receptors on rat anterior pituitary cells (rat); remark: listed apart in the source
[23] = biological target: CRF receptors on rat anterior pituitary cells (rat); remark: listed apart in the source
[24] = biological target: CRF receptors on rat anterior pituitary cells (rat); remark: listed apart in the source
[25] = biological target: CRF receptors on rat anterior pituitary cells (rat); remark: listed apart in the source
[26] = biological target: CRF receptors on rat anterior pituitary cells (rat); remark: listed apart in the source
CRF-RA = assay: binding assay

Substance: (cyclo 28-31) D-Phe^12, Nle^21,38, Glu^28, Lys^31 !-r/hCRF(12-41) (peptide)
- in vitro biopotency: inhibition of ACTH secretion (times the Standard) [1]: 3.12

Substance: (cyclo 28-32) D-Phe^12, Nle^21,38, Glu^28, D-Ala^31, Lys^32 !-r/hCRF(12-41) (peptide)
- in vitro biopotency: inhibition of ACTH secretion (times the Standard) [2]: 4.91

Substance: (cyclo 28-32) D-Phe^12, Nle^21,38, Glu^28, D-Gln^30, Lys^32 !-r/hCRF(12-41) (peptide)
- in vitro biopotency: inhibition of ACTH secretion (times the Standard) [3]: 3.69

Substance: (cyclo 28-32) D-Phe^12, Nle^21,38, Glu^28, Lys^32 !-r/hCRF(12-41) (peptide)
- in vitro biopotency: inhibition of ACTH secretion (times the Standard) [4]: 7.3

Substance: (cyclo 29-32) D-Leu^11, Nle^17, Glu^29, D-Ala^31, Lys^32 !-Sauvagine (11-40) (peptide)
- in vitro biopotency: inhibition of ACTH secretion (times the Standard) [5]: 15

Substance: (cyclo 29-32) D-Leu^11, Nle^17, Glu^29, Lys^32 !-sauvagine(11-40) (peptide)
- in vitro biopotency: inhibition of ACTH secretion (times the Standard) [6]: 22

Substance: (cyclo 29-32) D-Phe^12, Nle^21,38, Glu^29, Lys^32 -r/hCRF(12-41) (peptide)
- in vitro biopotency: inhibition of ACTH secretion (times the Standard) [7]: 3.38

Substance: (cyclo 29-33) D-Phe^12, Nle^21,38, Glu^29, D-His^32, Lys^33 -r/hCRF(12-41) (peptide)
- in vitro biopotency: inhibition of ACTH secretion (times the Standard) [8]: 26

Substance: (cyclo 29-33) D-Phe^12, Nle^21,38, Glu^29, Lys^33 -r/hCRF(12-41) (peptide)
- in vitro biopotency: inhibition of ACTH secretion (times the Standard) [9]: 7.15

Substance: (cyclo 30-33) Ac-Asp^9, D-Phe^2, Nle^21,38, CML^27, Glu^30, D-His^32, Lys^33 -r/hCRF(9-41) (peptide)
- in vitro biopotency: inhibition of ACTH secretion (times Peptide IV) [10]: 2.22

Substance: (cyclo 30-33) Ac-Asp^9, D-Phe^12, CML^18,27, Nle^21,38, Glu^30, Lys^33 -r/hCRF(9-41) (peptide)
- in vitro biopotency: inhibition of ACTH secretion (times the Standard) [11]: 13

Substance: (cyclo 30-33) Ac-Asp^9, D-Phe^12, Nle^21,38, CML^27, Glu^30, Lys^33 !-r/hCRF(9-41) (peptide)
- in vitro biopotency: inhibition of ACTH secretion (times Peptide IV) [12]: 1.2

Substance: (cyclo 30-33) Ac-Asp^9, D-Phe^12, Nle^21, CML^27,37, Glu^30, Lys^33 -r/hCRF(9-41) (peptide)
- in vitro biopotency: inhibition of ACTH secretion (times the Standard) [13]: 1.4

Substance: (cyclo 30-33) Ac-D-Phe^12, Nle^21,38, CML^27, Glu^30, D-His^32, Lys^33 !-r/hCRF(12-41) (peptide)
- in vitro biopotency: inhibition of ACTH secretion (times the Standard) [14]: 43

Substance: (cyclo 30-33) Ac-D-Phe^12, Nle^21,38, CML^27, Glu^30, Lys^33 !-r/hCRF(12-41) (peptide)
- in vitro biopotency: inhibition of ACTH secretion (times Peptide IV) [15]: 1.65

Substance: (cyclo 30-33) Ac-Thr^11, D-Phe^12, CML^15,27, Nle^21,38, Glu^30, D-His^32, Lys^33 -r/hCRF(11-41) (peptide)
- in vitro biopotency: inhibition of ACTH secretion (times Peptide IV) [16]: 1.11

Substance: (cyclo 30-33) Ac-Thr^11, D-Phe^12, CML^18,27, Nle^21,38, Glu^30, D-His^32, Lys^33 !-r/hCRF(11-41) (peptide)
- in vitro biopotency: inhibition of ACTH secretion (times Peptide IV) [17]: 1.94

Substance: (cyclo 30-33) Ac-Thr^11, D-Phe^12, Nle^21,38, CML^27, Glu^30, D-His^32, Lys^33 !-r/hCRF(11-41) (peptide)
- in vitro biopotency: inhibition of ACTH secretion (times Peptide IV) [18]: 1.4

Substance: (cyclo 30-33) D-Phe^12, CML^14, Nle^21,38, Glu^30, D-His^32, Lys^33 !-r/hCRF(12-41) (peptide)
- in vitro biopotency: inhibition of ACTH secretion (times the Standard) [19]: 15

Substance: (cyclo 30-33) D-Phe^12, CML^15, Nle^21,38, Glu^30, D-His^32, Lys^33 !-r/hCRF(12-41) (peptide)
- in vitro biopotency: inhibition of ACTH secretion (times the Standard) [20]: 20.3

Substance: (cyclo 30-33) D-Phe^12, CML^19, Nle^21,38, Glu^30, D-His^32, Lys^33 !-r/hCRF(12-41) (peptide)
- in vitro biopotency: inhibition of ACTH secretion (times the Standard) [21]: 4.5

Substance: (cyclo 30-33) D-Phe^12, Nle^18,21, Glu^30, Lys^33 !-Sucker Urotensin I(12-41) (peptide)
- in vitro biopotency: inhibition of ACTH secretion (times Peptide IV) [22]: 1.32

Substance: (cyclo 30-33) D-Phe^12, Nle^21,38, CML^27, Glu^30, D-His^32, Lys^33 !-r/hCRF(11-41) (peptide)
- in vitro biopotency: inhibition of ACTH secretion (times Peptide IV) [23]: 1.26

Substance: (cyclo 30-33) D-Phe^12, Nle^21,38, CML^27, Glu^30, D-His^32, Lys^33 !-r/hCRF(12-41) (peptide)
- in vitro biopotency: inhibition of ACTH secretion (times the Standard) [24]: 53.6

Substance: (cyclo 30-33) D-Phe^12, Nle^21,38, Glu^30, D-His^32, Lys^33, CML^37 !-r/hCRF(12-41) (peptide)
- in vitro biopotency: inhibition of ACTH secretion (times the Standard) [25]: 16

Substance: (cyclo 30-33) D-Tyr^12, Nle^21,38, Glu^30, Lys^33 !-r/hCRF(12-41) (peptide)
- in vitro biopotency: inhibition of ACTH secretion (times the Standard) [26]: 5.6
- Kd (CRF-RA): 2 nM
